According to article PMC3093450:

Target: GST-Sec23p (yeast) (UniProt P15303)
Assay: pull-down

Sequence of GST-Sec23p (yeast) (P15303 2-768): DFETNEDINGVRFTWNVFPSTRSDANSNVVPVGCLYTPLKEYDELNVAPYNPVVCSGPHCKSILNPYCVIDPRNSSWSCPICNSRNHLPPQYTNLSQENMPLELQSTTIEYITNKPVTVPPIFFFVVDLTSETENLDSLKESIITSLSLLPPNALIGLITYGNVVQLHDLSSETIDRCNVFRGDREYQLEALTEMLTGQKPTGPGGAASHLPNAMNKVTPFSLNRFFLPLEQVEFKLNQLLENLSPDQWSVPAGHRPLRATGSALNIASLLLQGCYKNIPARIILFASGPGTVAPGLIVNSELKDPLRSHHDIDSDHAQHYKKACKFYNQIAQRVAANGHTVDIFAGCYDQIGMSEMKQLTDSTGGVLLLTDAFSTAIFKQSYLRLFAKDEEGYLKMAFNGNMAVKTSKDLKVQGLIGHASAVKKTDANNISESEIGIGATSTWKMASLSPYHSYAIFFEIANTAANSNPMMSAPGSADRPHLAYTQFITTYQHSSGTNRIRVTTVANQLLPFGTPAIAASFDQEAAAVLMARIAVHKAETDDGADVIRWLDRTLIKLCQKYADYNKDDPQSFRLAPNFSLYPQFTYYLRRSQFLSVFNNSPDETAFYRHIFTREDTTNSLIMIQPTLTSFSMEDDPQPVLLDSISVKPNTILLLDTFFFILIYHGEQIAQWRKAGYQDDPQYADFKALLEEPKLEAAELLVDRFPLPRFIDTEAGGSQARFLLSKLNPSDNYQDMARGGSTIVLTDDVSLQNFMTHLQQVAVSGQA

## TRAPPI complex (from UniProt P36149 1-193)
  Kd: 630 nM
